The target of one experiment is yeast Vo subunit d (yeast (Saccharomyces cerevisiae), UniProt P32366). Kind of experiment: cryo-EM structure.
The target of experiment [1] is T1, lipid nanodisc reconstituted yeast V-ATPase Vo proton channel subcomplex (VoND) (Saccharomyces cerevisiae (S288c-type …, UniProt P32563;P25515;P32842;P23968;P32366;Q3E7B6;P0C5R9;P53262)). The experiment can be described thus: BLI.
The target of experiment [2] is T1, lipid nanodisc reconstituted yeast …. The experiment can be described thus: cryo-EM structure.
Experiment [3] has as its target yeast Vo proteolipid subunit c (Vma3p) (yeast (Saccharomyces cerevisiae), UniProt P25515). Kind of experiment: cryo-EM structure.

Where “and” joins values, the source holds several entries; their conditions need not be identical. Equal values may be shown once. Where only a bound is given, the exact number is not on record here.

Chain of yeast Vo proteolipid subunit c (Vma3p) (P25515 whole entry): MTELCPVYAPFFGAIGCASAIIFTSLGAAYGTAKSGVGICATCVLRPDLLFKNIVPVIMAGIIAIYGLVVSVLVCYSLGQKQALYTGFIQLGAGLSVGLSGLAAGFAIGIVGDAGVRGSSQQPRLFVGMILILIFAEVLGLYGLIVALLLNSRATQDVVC
Chain of yeast Vo subunit d (P32366 whole entry): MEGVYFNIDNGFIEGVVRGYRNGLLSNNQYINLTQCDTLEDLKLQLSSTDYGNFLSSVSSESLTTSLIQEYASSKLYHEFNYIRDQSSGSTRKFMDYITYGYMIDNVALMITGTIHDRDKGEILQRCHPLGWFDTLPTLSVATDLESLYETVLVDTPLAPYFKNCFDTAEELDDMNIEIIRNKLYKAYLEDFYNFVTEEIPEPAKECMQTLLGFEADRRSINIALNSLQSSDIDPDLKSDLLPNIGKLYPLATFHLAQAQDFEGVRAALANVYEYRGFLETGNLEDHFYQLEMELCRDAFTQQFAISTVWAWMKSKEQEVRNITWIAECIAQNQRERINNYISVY

B1: Nanobody N2149 (2WVA149) (VHH)
VHH: QVQLQESGGGLVQAGGSLRLSCAVSGSIFSGNAMDWYRQAPGKQRELVASLTSTGSTNYADSVKGRFTITRDNAKNTVYLQMNSLKPEDTAVYYCHALIYRSRLDLAPGNYWGQGTQVTVSS
Take B1: the binding result in the experiment with yeast Vo subunit d is on record as “binds”. Binding in experiment [1] was put at a Kd of 0.09 ± 0.023 nM.

B2: Nanobody N125 (1WVA25) (VHH)
VHH: QVQLQESGGGLVQPGGSLRLSCVASGFTFSRYAMTWVRQAPGKGLEWVSDISSGGSSTFYTDSVKGRFTISRDNAKNTLYLQMNSLKPDDTAIYFCAKGVPSYYSDYERRSKRYDSRGQGTQVTVSS
For B2, the stoichiometry N (commonly the number of molecules, sites or subunits per partner or assembly) in experiment [2] is 4 N125 per VoND and 3 N125 per VoND. In addition, in experiment [3], the binding result is on record as “binds”. Moreover, binding in experiment [1] was put at a Kd of 0.013 ± 0.001 nM.

B3: Nanobody N27 (2WVA7) (VHH)
VHH: QVQLQESGGGLVEIGGSLRLSCAASGTLFTFNTMAWYRQAPGKQREFIATITSGGNTNYADSVQGRFTISRGNAKNTLYLQMNSLKPEDTAVYYCNARTMTGPFDYWGQGTQVTVSS
For the molecule B3, the “stoichiometry N” value in experiment [2] was 8 N27 per VoND. Further, the binding result in experiment [3] was “binds”. Further, the Kd (in general, the equilibrium constant for the complex coming apart) in experiment [1] was under 0.001 nM.

Source of the values: PMC11741422 (bioRxiv, 2025).
